The series in a line: soluble on expression in E. coli; label from the status in PepcDB or PDB records.
On to “TLTVNGPPIISSTQTQHALHGEKGQIKCFIRSTPPPDRIAWSWKENVLESGTSGRYTVETISTEEGVISTLTISNIVRADFQTIYNCTAWNSFGSDTEIIRLKEQGSEM”, for which the “soluble on expression in E. coli” value is reported as “soluble”.
For “MGSDKIHHHHHHMTNDPIVFQMSVVKNKPQSYRKDKNKDICPFCDVENLTDIYAKDGDIIWLHNKFPTLRDTLQTVLIESSDHNGDISTYTKKYNRKLLRFSLQCFERMNRDDKYQSVVWYKNYGPHSGGSLIHPHMQIVGFKNVDGYKYIHPNNFEGETLFDKDGVEVNVAEHPVQGYTELNINLLNRNSVDLWADWIQSGAKYLLNIMYDGRCDSYNLFFYPRNDEGICAKFITRFDAPPYFVGYKLSQVNDEMTLTKEARRFKEFYDNDSKIK”, the “soluble on expression in E. coli” value is given as “not soluble”.
Consider “MTYGPESLSNQELLAILLRTGTKKEHVLNLSIKILNGLDSLADFRSLSLEELQEIEGIGQVRSVEIKAMLELSKRINQAEYNFKERILSSERLAKIMMSELGDKRQEHLIAIYLDTQNRVIKKQVIFIGSVRRSVAEPREILHYACKSMATSLIIVHNHPSGSTYPSENDLRFTEKIKRSCDDLGIVFLDHIIVGKKEYYSFREETDLV”, for which the “soluble on expression in E. coli” value is “not soluble”.
In the case of “MLTWSTSATSSKPTLRGKIPNSKAAEEFLDSWDNAVFDGKSTGDPELDREASLWRDKFPHLRITGSRFESQKVTHPIPVDSLSFQKSIIQHSKSANAIREKLPKIDNFKKK”, the “soluble on expression in E. coli” value is reported as “not soluble”.
With “MDKDMQLIRGLHNANRVLQGCALTIGNFDGVHLGHQTVLRHLRQKADELNLPMAVLLFESQPREYFMGKNAPARLMRLRDKIYYLEKAKVDVVIVAKFDRTFAEQLADVFIEQTLVNHLHVKFLSIGDDFKFGSKRQGNFAMLQAASKRFGFIVEDNRSFCLDAQRISSTAIREALANDDLQLAENLLGKPYRIFGRVIHGNKLGRTIGFPTANIRLHRQVNPIKGVYAVKVRLKSGEIFNGVANMGKRPTINGLMQLLEVHLFDFSQNIYGQMVEVEFCHKIRNEIKFPSFDDLKVQIEKDVETAKAFFNSLEHHHHHH” the entry was “not soluble”; with “MTYIALIGDIIQSKQLTDRSKVQKTLAAYLDDLNKTFAPYIISKLSLTLGDEFQGLFQVDTPIFHLIDLINHHMDIPIRFGVGVGSILTDINPDISIGADGPAYWHAREAIRYIHQKNDYGNTTLALRTGHHNQDDVLNSLLAAGDAIKANWRASQWEIFDTLLDLGIYEEYFDQQRLGKQLSLSSSALSKRLKSSHVKIYLRTRQSALNCLKQIKEETDD”, “not soluble”; with “MASNEVLVLRGTLEGHNGWVTSLATSAGQPNLLLSASRDKTLISWKLTGDDQKFGVPVRSFKGHSHIVQDCTLTADGAYALSASWDKTLRLWDVATGETYQRFVGHKSDVMSVDIDKKASMIISGSRDKTIKVWTIKGQCLATLLGHNDWVSQVRVVPNEKADDDSVTIISAGNDKMVKAWNLNQFQIEADFIGHNSNINTLTASPDGTLIASAGKDGEIMLWNLAAKKAMYTLSAQDEVFSLAFSPNRYWLAAATATGIKVFSLDPQYLVDDLRPEFAGYSKAAEPHAVSLAWSADGQTLFAGYTDNVIRVWQVMTAN”, “soluble”.
For the sequence “MGSHHHHHHDITSLYKKAGSAAAVLEENLYFQGSFTMLHEIPKSEILKELKRIGAKRVLIQSPEGLRREAEELAGFLEENNIEVFLHGEINYGACDPADREAKLVGCDALIHLGHSYMKLPLEVPTIFVPAFARVSVVEALKENIGEIKKLGRKIIVTTTAQHIHQLKEAKEFLESEGFEVSIGRGDSRISWPGQVLGCNYSVAKVRGEGILFIGSGIFHPLGLAVATRKKVLAIDPYTKAFSWIDPERFIRKRWAQIAKAMDAKKFGVIVSIKKGQLRLAEAKRIVKLLKKHGREARLIVMNDVNYHKLEGFPFEAYVVVACPRVPLDDYGAWRKPVLTPKEVEILLGLREEYEFDEILGGPRESDEPFGISIHSTR”, the “soluble on expression in E. coli” value was “soluble”.
As for “MQSLIGLMRPETGKKLENLNHFIQQFEKVLIAFSGGVDSSTLAAVCSNAGVEVLAVTVLSSVSPRREMEEAKRIAEELGVRHEFLKIDLMDEDFRRNDENRCYYCKRRVLSALVEEAKKRGIEVVLEGTNASDLSDHRPGYRAVRELDGVNSPWVEFGITKEEIREIARSMGYSFHDKPSMACLASRIPFGIEIDEEKLKMVDEAEEAVIELAGVKQVRVRNYDGVAVVEVAGDELRKLLNCAEKVRDKLKKIGFRAVLIDLEGYRSGKRLFKF”, the entry is “not soluble”.
Consider “QMTLTELRAFLDQMNNLPCAMHQIGDVKGVLEQVEAYQAEAREALASLPSSPGLLQSLLERGRQLGVEVPEAQQLQRQVEQARWLDEVKRTLAPSARRGTLAVMRGLLVAGASVAPSPAVDKAQAELQELLTIAERWEEKAHLCLEARQKHPPATLEAIIREAENIPVHLPNIQALKEALAKARAWIADVDEIQNGDHYPCLDDLEGLVAVGRDLPVGLEELRQLELQVLTAHSWREKASKTFLKKNS”, for which the “soluble on expression in E. coli” value is “not soluble”.
“MGSDKIHHHHHHAPFVFDQQSYRQDVQTLASDEFEGRGPLSQGETLTVEYLENAFKKMGLAPGFGDSYRQSVPMAKITADQNMQLKVGELVFNNGSDFTARTEQIQPSITLDNSEIVFVGYGINAPEYGWNDYAGIDVKGKTVILMVNDPGFATQDPEVFKGNAMTYYGRWTYKYEEAARQGAKAVFIIHETAPAAYGWNVVQNSNTNTKYTLVDKEKNRSHIGVMGWVQHEVAQKIFTAAGLDYDKLKLTAAKPGFKSRSLDLKANLEVKNDIELATSYNVAGLLPGKTRPDEWLVMHAHWDHLGKTVHEDQTRIYNGAVDNASGVAGVLQLARHFKDLSATQPPARSMLFSAFTAEETGLIGAQYFAENSPVPTKQLVAFLNIDGMNVGKGVDYILRYGEGVSELENYLDKAAKAQGRWVKADPRPQNGLMFRSDHFALAKQGVPGLMFMSLGDTDPDYIAHKYHQGADDYDPSWTLGGVEQDLALISDILEKLANNNDWPKWLEASDFKTRRAQDGR”: the “soluble on expression in E. coli” value is listed as “not soluble”.
With “PTNIHKIHEVQKKLQEEVSIVLIDIADIIVNPKKENGYSRDLYTLNSLIDSSISETYDNINNTLLSDTRFFLEHMDIIKSQRDILENLYSYVSQLNSTPPQAHILSAFIHKIGYTEFEAETGNLLLEELKRLMISMKNQPLPVDRTEFENRAILFLCLTELKQFLVNRKHAQML” the entry was “soluble”; with “MGSDKIHHHHHHASNPVLRISDGWVADTIAPALIHYRFAGYDSISQAHQNVDVLEVDLTSPSYDIQLVYEEHGDSLSSVAERNNAAAAINGTYEAEASFIKIGGRLLAQNRLDSTHIRYWKHEGAFLFDDDNKNIDIRFASDSTFLSHPAANILSGAPMLIDNNDPVGLNFTGNVEGMDLNKLDYEDFRRHQGVRHPRTAVALTEHKKLLLITVDGRSTQAAGMSANELTRFLLTYFCPQSALNLDGGGSTTMWIASSEQRVGGVVNHPTDNKKFDHAGQRRVTSFIVIKSSENHE”, “not soluble”; with “MGSDKIHHHHHHMVETYTLNPNLTKTAAVAEWLQQRIDWHIYLPNQRVPSVRKLAKLLNISSFTVVQAYEQLVATGVLIAKPSSGYYVNTQSKLVQPNDDKRKVFKHPVIDTRWLVQQVFSDIPHNRSPGVGTLPRDWVRNDKMEWAIRQVTQQADSFIYDYGNVQGYLPLRQQLVQHLHTLGMQTHADHVITTAGVSQAVTMVARLLTQAGDTVVVDGPGWYWLSSCLQQQGLNVVSVERDHQGPNIEQMQKLFAAHRPKLYLTNSVLHNPTSYNLHPARAHQVLNLIHEYDAYIFEDDLYAAFVPGGQVLRYASLDQFERVFYATGFSKSMASGWRVGMLVCPDNYIDDVLRIKTLSNSNTPEFGERVCHHLWTHGEYRRQIKKVQQHLYRAHERMRKALPKIRLIYPEHTQAGLFVWVDMGQDTSQLALDAYKEGWLVAPGQLFYPDVSASTHLRLNVSTTSDEFLRWLGDYLDKSCQY”, “not soluble”.
As for “MTSIIKLKVFSGAKDEGPLCYLLQVDGDYILLDCGWDERFGLQYFEELKPFIPKISAVLISHPDPLHLGGLPYLVSKCGLTAPVYATVPVYKMGQMFIYDMVYSHLDVEEFEHYTLDDVDTAFEKVEQVKYNQTVVLKGDSGVHFTALPAGHMLGGSIWRICRVTGEDIVYCVDFNHKKERHLNGCSFDNFNRPHLLITGAHHISLPQMRRKDRDEQLVTKILRTVRQKGDCMIVIDTAGRVLELAHLLDQLWSNADAGLSTYNLVMMSHVASSVVQFAKSQLEWMNEKLFKYDSSSARYNPFTLKHVTLCHSHQELMRVRSPKVVLCSSQDMESGFSRELFLDWCSDPRNGVILTARPASFTLAAKLVNMAERANDGVLKHEDRLISLVVKKRVALEGEELLEYKRRKAERDAEETRLRMERARRQAQANESDDSDDDDIAAPIVPRHSEKDFRSFDGSENDAHTFDIMAKWDNQQKASFFKTTKKSFPMFPYIEEKVKWDDYGEVIKPEDYTVISKIDLRKGQNKDEPVVVKKREEEEEVYNPNDHVEEMPTKCVEFKNRVEVSCRIEFIEYEGISDGESTKKLLAGLLPRQIIVVHGSRDDTRDLVAYFADSGFDTTMLKAPEAGALVDASVESFIYQVALSDALLADIQFKEVSEGNSLAWIDARVMEKEAIDNMLAVGTSNLMIDDKNREEDVNDQEENGATEGEGNAEPMEIGENGSQESLAISESGKEVENGHTNDSRTKKGTKGKIRGNLILDPLPKRLIPIHQAVFVNDPKLSDFKNLLTDKGYKAEFLSGTLLINGGNCSIRRNDTGVFQMEGAFTKDYYKLRRLFYDQFAVL”, the entry is “not soluble”.
For “MSLVIRRLYQFCASHVVRNCSSLKCAQNIHGHNYEVEVFIETNRLDNANMALDFGLMQQEMQVFIESFDHAHHFWDKESLEFQRFIENHCVRYVKCSFNLSAESYALMFLYYLTKILQKSVFSNDEGELKVSSVRVHETKNGYAESFLKDEGHHHHHH”, the “soluble on expression in E. coli” value was “soluble”.
“VREILSIHVGQCGNQIADSFWRLALREHGLTEAGTLKEGSNAAANSNMEVFFHKVRDGKYVPRAVLVDLEPGVIARIEGGDMSQLFDESSIVRKIPGAANNWARGYNVEGEKVIDQIMNVIDSAVEKTKGLQGFLMTHSIGGGSGSGLGSLILERLRQAYPKKRIFTFSVVPSPLISDSAVEPYNAILTLQRILDNADGAVLLDNEALFRIAKAKLNRSPNYMDLNNIIALIVSSVTASLRFPGKLNTDLSEFVTNLVPFPGNHFLTASFAPMRGAGQEGQVRTNFPDLARETFAQDNFTAAIDWQQGVYLAASALFRGDVKAKDVDENMATIRKSLNYASYMPASGGLKLGYAETAPEGFASSGLALVNHTGIAAVFERLIAQFDIMFDNHAYTHWYENAGVSRDMMAKARNQIATLAQSYRDAS”: the “soluble on expression in E. coli” value is reported as “soluble”.
As for “SAEAGTGEPSPSVEGEHGTEYDTLPSDTVSLSDSDSDLSLPGGAEVEALSPMGLPGEEDSGPDEPPSPPSGLLPATVQPFHLRGMSSTFSQRSRDIFDCLEGAARRAPSSVAHTSMSDNGGFKRPLAPSGRSPVEGLGRAHRSPASPRVPPVPDYVAHPERWTKYSLEDVTEVSEQSNQATALAFLGSQSLAAPTDCVSSFNQDPSSCGEGRVIFTKPVRGVEARHERKRVLGKVGEPGRGGLGNPATDRGEGPVELAHLAGPGSPEAEEWGSPHGGLQEVEALSGSVHSGSVPGLPPVETVGFHGSRKRSRDHFRNKSSSPEDPGAEV”, the “soluble on expression in E. coli” value is reported as “soluble”.
Regarding “MGSDKIHHHHHHMIHIRPFQHQDADYRVMADVYNALAPDAPLSAIEWRIRDEIHNPNLPLCRWIGELDGRAGGYAEYYQPTWCADPTHLEMQIVVHPAVQGRGLGRALWQHLQMAWQPLRPHHIWLKVREDWQAGLMFAGRRQFHESRRVWVSRLDLATFDPQPFSGSIERVTAQQIELISFAALATADQGFWQQLYEFERQTTGDVPSPFPVTMPTYDQWIKLYQPDHGALWEGSFAAVHEGQIVGISTLETIDDSTDVEVGFTAVRRDYRGRGIALALKLCTIAYAGAQGLSGIRTDNDSTNLAMWHINERLGFRRGPVWIVLHRCEQNEEVT”, the “soluble on expression in E. coli” value is “not soluble”.

The values are drawn from the DeepSol protein solubility set.
